Laboratory results: paper doi:10.1101/2024.01.22.576655

Experiments:
[1] = biological target: β-gal RNCs purified in low-salt buffer without the second sucrose cushion; experiment: affinity purification with mass spectrometry
[2] = biological target: BADAN-labelled TF_(R14C) (Escherichia coli) (UniProt P0A850); experiment: other fluorescence titration
[3] = biological target: RNC_(1-646) (Escherichia coli BL21(DE3)); experiment: co-sedimentation
longer NCs = experiment: co-sedimentation
[4] = biological target: RNC_(1-180) (Escherichia coli BL21(DE3)); experiment: co-sedimentation

Sequence of DnaJ (endogenous) (P08622 whole entry): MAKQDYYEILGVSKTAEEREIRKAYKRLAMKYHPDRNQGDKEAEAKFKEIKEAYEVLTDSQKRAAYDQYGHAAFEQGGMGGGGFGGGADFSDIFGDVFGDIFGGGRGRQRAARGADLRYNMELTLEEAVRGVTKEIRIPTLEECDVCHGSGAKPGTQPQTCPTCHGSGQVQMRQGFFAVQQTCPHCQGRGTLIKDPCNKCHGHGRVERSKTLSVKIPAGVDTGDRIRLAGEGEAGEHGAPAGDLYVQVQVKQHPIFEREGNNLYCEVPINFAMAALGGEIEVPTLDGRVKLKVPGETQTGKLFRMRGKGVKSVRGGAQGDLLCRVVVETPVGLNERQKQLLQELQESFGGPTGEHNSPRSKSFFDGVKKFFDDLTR

Row | Substance | occupancy [1] | stoichiometry N [3] | further results
1 | DnaK (endogenous) (from UniProt P0A6Y8 1-638) (natural protein) | < 10% | – | –
2 | RNC_(1-646) (complex) | – | – | Kd [2]: 21 nM
3 | Trigger factor, wild type, recombinant (from UniProt P0A850 1-432) (natural protein) | – | 1 TF per RNC | –

More lines, main results first:

Row | occupancy [1] | stoichiometry N [3] | Substance | further results
4 | – | 2 DnaK per NC | DnaK, recombinant (from UniProt P0A6Y8 1-638) (natural protein) | stoichiometry N (molecules of DnaK per NC) (longer NCs): 2 to 3; stoichiometry N [4]: 1 DnaK per NC
5 | < 10% | – | DnaJ (endogenous) (from UniProt P08622 1-376) (natural protein) | –
